The results in this text go back to patent publication US20220177577A1.

The labels stand for the following.
B1: CK6-SET0207 (antibody, V domains shown)
VH: QVQLVQSGAAVKKPGESLKISCKGSGYRFTSYWIGWVRQMPGKGLEWMGIIYPGDSDTRYSPSFQGQVTISAGKSISTAYLQWSSLKASDTAMYYCARHGRGYNGYEGAFDIWGQGTMVTVSS
VL: AIQLTQSPSSLSASVGDRVTITCRASQGISSALAWYQQKPGKAPKLLIYDASSLESGVPSRFSGSGSGTDFTLTISSLQPEDFATYYCQQFNSYPLTFGGGTKVEIK
modifications: here or on the partner: SET0207 payload ('Non-cleavable natural') conjugated, Fc modification D265C H435A, DAR 2.0
B2: CK6 S239C-PBD (antibody, V domains shown)
VH: QVQLVQSGAAVKKPGESLKISCKGSGYRFTSYWIGWVRQMPGKGLEWMGIIYPGDSDTRYSPSFQGQVTISAGKSISTAYLQWSSLKASDTAMYYCARHGRGYNGYEGAFDIWGQGTMVTVSS
VL: AIQLTQSPSSLSASVGDRVTITCRASQGISSALAWYQQKPGKAPKLLIYDASSLESGVPSRFSGSGSGTDFTLTISSLQPEDFATYYCQQFNSYPLTFGGGTKVEIK
modifications: here or on the partner: PBD (DNA cross linker) conjugated, Fc modification S239C, DAR 1.7
B3: CK6 S239C-DM (antibody, V domains shown)
VH: QVQLVQSGAAVKKPGESLKISCKGSGYRFTSYWIGWVRQMPGKGLEWMGIIYPGDSDTRYSPSFQGQVTISAGKSISTAYLQWSSLKASDTAMYYCARHGRGYNGYEGAFDIWGQGTMVTVSS
VL: AIQLTQSPSSLSASVGDRVTITCRASQGISSALAWYQQKPGKAPKLLIYDASSLESGVPSRFSGSGSGTDFTLTISSLQPEDFATYYCQQFNSYPLTFGGGTKVEIK
modifications: here or on the partner: duocarmycin (DM) conjugated, Fc modification S239C, DAR 1.65
B4: CK6 S239C-PNU (antibody, V domains shown)
VH: QVQLVQSGAAVKKPGESLKISCKGSGYRFTSYWIGWVRQMPGKGLEWMGIIYPGDSDTRYSPSFQGQVTISAGKSISTAYLQWSSLKASDTAMYYCARHGRGYNGYEGAFDIWGQGTMVTVSS
VL: AIQLTQSPSSLSASVGDRVTITCRASQGISSALAWYQQKPGKAPKLLIYDASSLESGVPSRFSGSGSGTDFTLTISSLQPEDFATYYCQQFNSYPLTFGGGTKVEIK
modifications: here or on the partner: PNU (DNA topoisomerase I/II inhibitor) conjugated, Fc modification S239C (printed S2390 in Table 4), DAR 1.4
B5: CK6 S239C-D4 (antibody, V domains shown)
VH: QVQLVQSGAAVKKPGESLKISCKGSGYRFTSYWIGWVRQMPGKGLEWMGIIYPGDSDTRYSPSFQGQVTISAGKSISTAYLQWSSLKASDTAMYYCARHGRGYNGYEGAFDIWGQGTMVTVSS
VL: AIQLTQSPSSLSASVGDRVTITCRASQGISSALAWYQQKPGKAPKLLIYDASSLESGVPSRFSGSGSGTDFTLTISSLQPEDFATYYCQQFNSYPLTFGGGTKVEIK
modifications: here or on the partner: calicheamicin (D4) conjugated, Fc modification S239C, DAR 1.72

In the assay the target is CD117 on Kasumi-1 cells and on primary human CD34+ bone marrow cells (human), P10721. The assay can be described thus: cell-based or functional assay.
Chain of CD117 on Kasumi-1 cells and on primary human CD34+ bone marrow cells (human), P10721 (P10721 26-976): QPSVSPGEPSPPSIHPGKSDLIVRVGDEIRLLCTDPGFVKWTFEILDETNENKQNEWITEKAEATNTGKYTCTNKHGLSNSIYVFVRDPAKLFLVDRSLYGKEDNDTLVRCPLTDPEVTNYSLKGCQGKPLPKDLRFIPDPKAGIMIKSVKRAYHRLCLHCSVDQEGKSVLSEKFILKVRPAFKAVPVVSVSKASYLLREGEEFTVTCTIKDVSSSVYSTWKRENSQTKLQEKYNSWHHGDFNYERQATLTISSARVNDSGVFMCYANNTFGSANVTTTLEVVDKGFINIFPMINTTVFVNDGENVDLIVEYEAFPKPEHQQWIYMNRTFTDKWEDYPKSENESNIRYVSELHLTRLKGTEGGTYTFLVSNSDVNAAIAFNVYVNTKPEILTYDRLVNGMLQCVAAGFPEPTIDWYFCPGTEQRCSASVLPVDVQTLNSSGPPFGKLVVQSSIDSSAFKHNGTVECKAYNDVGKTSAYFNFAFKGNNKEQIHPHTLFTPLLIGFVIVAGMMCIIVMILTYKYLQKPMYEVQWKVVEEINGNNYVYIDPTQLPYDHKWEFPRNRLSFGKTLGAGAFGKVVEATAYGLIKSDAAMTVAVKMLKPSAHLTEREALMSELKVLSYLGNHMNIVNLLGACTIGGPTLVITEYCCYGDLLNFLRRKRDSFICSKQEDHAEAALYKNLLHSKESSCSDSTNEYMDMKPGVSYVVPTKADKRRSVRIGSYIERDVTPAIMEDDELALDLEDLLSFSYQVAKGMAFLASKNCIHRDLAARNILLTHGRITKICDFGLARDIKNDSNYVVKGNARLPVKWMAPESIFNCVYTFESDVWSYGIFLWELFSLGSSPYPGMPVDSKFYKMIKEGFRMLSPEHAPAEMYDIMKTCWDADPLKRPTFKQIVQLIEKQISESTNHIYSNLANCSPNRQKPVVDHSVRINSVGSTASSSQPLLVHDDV
The molecule B1 had a % Efficacy, in vitro Kasumi cell killing assay of 0% and a % Efficacy, in vitro hCD34 cell killing assay of 9.18%.

Molecule B2 came in with a % Efficacy, in vitro Kasumi cell killing assay of 60.7% and a % Efficacy, in vitro hCD34 cell killing assay of 97.3%.

B3 yielded a % Efficacy, in vitro Kasumi cell killing assay of 0% and a % Efficacy, in vitro hCD34 cell killing assay of 66.2%.

B4: the % Efficacy, in vitro Kasumi cell killing assay was 85.7% and the % Efficacy, in vitro hCD34 cell killing assay is 74.4%.

B5 showed a % Efficacy, in vitro Kasumi cell killing assay of 0% and a % Efficacy, in vitro hCD34 cell killing assay of 52.3%.
